Test results as given in patent publication US20250059284A1 (AGENX, published 2025).
Changes are numbered by the printed parent chain.

T1: human Gal10-His (human, UniProt Q05315 2-142, limits assumed)
T1 construct: also called human galectin-10; not shown: His tag
T1 sequence: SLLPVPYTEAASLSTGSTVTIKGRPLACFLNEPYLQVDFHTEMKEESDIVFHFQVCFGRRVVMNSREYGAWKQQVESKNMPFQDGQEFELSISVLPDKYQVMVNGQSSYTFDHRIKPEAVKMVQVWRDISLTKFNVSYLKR

T2: galectin-10 (Gal10), species and tag not stated for the assay (UniProt Q05315 2-142, limits assumed)
T2 construct: human is likely, since the human-specific 1D11 is in the panel
T2 sequence (looked up): T1 sequence

T3: recombinant galectin-10 crystals (Charcot-Leyden crystals) (UniProt Q05315 2-142, limits assumed)
T3 sequence (looked up): T1 sequence

B1: g24F02_N53A human Fab (Fab, V domains shown)
VH: EVQLLESGGGLVQPGGSLRLSCAASGFTFSSYAMSWVRQAPGKGLEWVSAINAGGGSTSYADSVKGRFTISRDNSKNTLYLQMNSLRAEDTAVYYCAKGLRVGVLGFDYWGQGTLVTVSS
VL: SYELTQPLSVSVALGQTARITCDGNNIGSKSAQWYQQKPGQAPVLVIYADEYRPEGIPERFSGSNSGNTATLTISRAQAGDEADYYCQVWDGSAAVFGGGTQLTVL
notes: Human Fab backbone
B2: g23H09 human Fab (Fab, V domains shown)
VH: EVQLLESGGGLVQPGGSLRLSCAASGFTFRSYDMSWVRQAPGKGLEWVSAIAQFQHWTYYADSVKGRFTISRDNSKNTLYLQMNSLRAEDTAVYYCATTHGIGTLGFGSWGQGTLVTVSS
VL: B1 VL
notes: Germlined clone in human Fab backbone; also called clone 23H09
B3: g20H09 human Fab (Fab, V domains shown)
VH: EVQLLESGGGLVQPGGSLRLSCAASGFTFRSYDMSWVRQAPGKGLEWVSAIKWHRITYYADSVKGRFTISRDNSKNTLYLQMNSLRAEDTAVYYCATTHGIGTLGFGSWGQGTLVTVSS
VL: B1 VL
notes: Germlined clone in human Fab backbone; also called clone 20H09
B4: g24F02 human Fab (Fab, V domains shown)
VH: B1 VH with A53N
VL: B1 VL
notes: Germlined clone in human Fab backbone

What was measured:
[1] = target: T1, human Gal10-His; test: SPR Biacore 3000; human Gal10-His captured on anti-His CM5 chip
Procedure: The binding properties of the selected Fab clones to human Gal10 were analyzed via a capture method established on Biacore 3000. It was decided to apply two concentrations of the selected Fab clones on human Gal10-His immobilized on a CM5 chip coated with a monoclonal anti-His.

[2] = target: T2, galectin-10 (Gal10), species and tag …; test: SPR (Biacore 3000), binding activity of the sample stored 4 weeks at +5 C and nebulized, relative to reference sample T0; criterion <20% loss
Procedure: The functional active concentration of the nebulized solutions was assessed by SPR on a Biacore 3000 instrument. All samples were evaluated with methods meeting the standard qualification criteria. Aliquots were tested at predefined test concentrations against titration curves from reference samples (TO) and in the presence of quality control (QC) samples.

[3] = target: T4, cynomolgus Gal10-His (WGS isoform) (cynomolgus); test: SPR Biacore 3000; cynomolgus Gal10-His (WGS isoform) captured on anti-His CM5 chip; Fab at 30 nM
T4 construct: also called cyno Gal10; cynomolgus antigen
Procedure: (§1) The binding properties of the selected Fab clones to human and cynomolgus Gal10 was analyzed via a capture method established on Biacore 3000. For this purpose, two approaches were used. In the first one, two concentrations of the selected Fab clone were applied on cynomolgus (WGS isoform) Gal10-His capture on a CM5 chip coated with a monoclonal anti-His. In the second approach, a serial dilution was applied on human or cynomolgus (WGS isoform) Gal10 His on the same set up.

[4] = target: T3, recombinant galectin-10 crystals …; test: cell-based or functional assay
[5] = target: T1, human Gal10-His; test: SPR Biacore 3000; human Gal10-His captured on anti-His CM5 chip; Fab at 30 nM
Procedure: as §1

Row | Binder | fold better off rate than g7B07 [1] [fold] | relative activity by SPR for T4W post-nebulization sample relative to reference sample T0 [2] [%] | Amplitude R0 (RU) 30 nM [3] [RU] | EC50, Gal10 crystal dissolution, stressed material (T4W post-nebulization, after 2 hour incubation), assay 2 [4] [µg/mL] | EC50, Gal10 crystal dissolution, unstressed material (T0, after 2 hour incubation), assay 2 [4] [µg/mL] | relative activity in recombinant Gal10 crystal dissolution, T4W post-nebulization sample relative to unstressed material T0 (at 2 hour incubation) [4] [%] | Amplitude R0 (RU) 30 nM [5] [RU] | EC50, Gal10 crystal dissolution, stressed material (T4W post-nebulization, after 2 hour incubation), assay 1 [4] [µg/mL] | EC50, Gal10 crystal dissolution, unstressed material (T0, after 2 hour incubation), assay 1 [4] [µg/mL] | relative activity in recombinant Gal10 crystal dissolution, T4W post-nebulization sample relative to unstressed material T0 (at 2 hour incubation), assay 1 [4] [%] | relative activity in recombinant Gal10 crystal dissolution, T4W post-nebulization sample relative to unstressed material T0 (at 2 hour incubation), assay 2 [4] [%]
1 | B1 | 3.5 | 111 | 544 | 159 | 191 | 120 | 647 | – | – | – | –
2 | B2 | 1.9 | 119 | 589 | 209 | 190 | – | 722 | 297 | 252 | 85 | 91
3 | B3 | – | 97 | – | – | – | 66 | – | 395 | 260 | – | –
4 | B4 | – | – | 566 | – | – | – | 644 | – | – | – | –
